Key:
[1] = target: purified human BACE1 ectodomain (human) (UniProt P56817); test: SPR; BIAcore; 2,500 RU purified BACE1 ectodomain amine-coupled to a CM5 chip; VHHs injected at 0–500 nM, 25°C; citrate buffer with 150 mM NaCl, 3.5 mM EDTA, 0.005% Tween-20 at pH 4.5
[2] = target: human BACE1 (amino acids 1–460) fused to the constant region of human IgG1 (hBACE1:Fc), wild type (human) (UniProt P56817)
[3] = target: purified human BACE1 ectodomain (human) (UniProt P56817); test: SPR; BIAcore; 2,500 RU purified BACE1 ectodomain amine-coupled to a CM5 chip; VHHs injected at 0–500 nM, 30 μl/min, 25°C; HBS buffer (10 mM Hepes (pH 7.5), 150 mM NaCl, 3.5 mM EDTA, 0.005% Tween-20); table gives pH 7.0
biotinylated mouse BACE1 [4] = target: T1, biotinylated mouse BACE1 (Mus musculus, UniProt P56818, biotin); test: BLI; OctetRED96; biotinylated human or mouse BACE1 immobilised at 1 μg/ml on streptavidin biosensors; serial dilutions of VHH-B9 (table: Conc. 100 nM); Kinetic Buffer, 25°C, 1,000 rpm; 1:1 fitting model; details: both partners purified
T1 construct: mouse BACE1, biotinylated and immobilised on streptavidin biosensors; Also used as the target of the functional rows on primary mouse neurons (there endogenous BACE1, whole, in cells); also called mBACE1
T1 sequence (P56818 46-501): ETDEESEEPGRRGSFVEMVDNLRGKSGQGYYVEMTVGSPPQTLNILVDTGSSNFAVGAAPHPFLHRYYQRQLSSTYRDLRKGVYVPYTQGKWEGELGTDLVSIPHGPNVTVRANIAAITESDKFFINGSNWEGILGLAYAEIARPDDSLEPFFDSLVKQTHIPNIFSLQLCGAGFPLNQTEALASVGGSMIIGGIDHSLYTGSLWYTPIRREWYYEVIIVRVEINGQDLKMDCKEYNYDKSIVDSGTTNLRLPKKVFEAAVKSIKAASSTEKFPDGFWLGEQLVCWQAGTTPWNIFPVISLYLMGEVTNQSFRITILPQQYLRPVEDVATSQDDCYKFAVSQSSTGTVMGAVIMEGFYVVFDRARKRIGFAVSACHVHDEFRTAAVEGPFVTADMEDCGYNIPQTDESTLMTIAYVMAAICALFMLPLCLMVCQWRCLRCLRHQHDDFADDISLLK

biotinylated human BACE1 = target: T2, biotinylated human BACE1 (Homo sapiens, UniProt P56817, biotin); test: as above; details: both partners purified
T2 construct: human BACE1, biotinylated and immobilised on streptavidin biosensors; Probably an ectodomain preparation; also called hBACE1; biotinylated BACE1
T2 sequence (P56817 46-501): as the sequence (P56818 46-501) above, with S6P, I162V, I165L, T180S, A182V, V340I, A393L, H443Q counted along it

mouse BACE2 = target: T3, mouse BACE2 (Mus musculus, UniProt Q9JL18); test: as above; details: both partners purified
T3 construct: mouse BACE2; also called mBACE2
T3 sequence (Q9JL18 20-514): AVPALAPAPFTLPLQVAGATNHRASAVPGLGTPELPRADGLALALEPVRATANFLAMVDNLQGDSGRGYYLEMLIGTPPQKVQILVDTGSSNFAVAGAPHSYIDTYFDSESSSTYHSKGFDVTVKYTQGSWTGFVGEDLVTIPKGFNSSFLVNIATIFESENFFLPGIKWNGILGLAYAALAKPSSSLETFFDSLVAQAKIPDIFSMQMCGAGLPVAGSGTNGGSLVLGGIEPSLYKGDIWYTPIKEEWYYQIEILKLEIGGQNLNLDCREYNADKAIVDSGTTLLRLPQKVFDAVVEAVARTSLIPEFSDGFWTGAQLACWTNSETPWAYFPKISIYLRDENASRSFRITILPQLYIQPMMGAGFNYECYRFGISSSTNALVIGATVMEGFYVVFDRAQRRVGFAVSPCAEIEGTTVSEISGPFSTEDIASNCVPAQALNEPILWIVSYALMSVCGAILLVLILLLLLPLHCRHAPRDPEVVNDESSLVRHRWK

biotinylated mouse BACE1 [5] = target: T1, biotinylated mouse BACE1; test: cell-based or functional assay
[6] = target: human BACE1 (amino acids 1–460) fused to the constant region of human IgG1 (hBACE1:Fc), wild type (Homo sapiens, UniProt P56817); test: cell-based or functional assay
Chain of human BACE1 (amino acids 1–460) fused to the constant region of human IgG1 (hBACE1:Fc), wild type (P56817 22-460): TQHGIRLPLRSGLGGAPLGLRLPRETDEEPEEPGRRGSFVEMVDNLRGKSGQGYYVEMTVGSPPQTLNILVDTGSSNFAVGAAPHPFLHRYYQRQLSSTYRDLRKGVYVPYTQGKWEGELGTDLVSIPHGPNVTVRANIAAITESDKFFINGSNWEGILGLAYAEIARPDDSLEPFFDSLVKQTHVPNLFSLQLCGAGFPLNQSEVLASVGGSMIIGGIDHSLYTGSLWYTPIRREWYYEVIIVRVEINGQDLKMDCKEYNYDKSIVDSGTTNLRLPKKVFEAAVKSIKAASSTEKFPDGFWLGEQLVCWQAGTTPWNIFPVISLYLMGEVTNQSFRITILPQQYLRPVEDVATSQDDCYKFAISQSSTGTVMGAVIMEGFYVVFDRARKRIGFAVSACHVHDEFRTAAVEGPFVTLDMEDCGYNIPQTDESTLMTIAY

Chain of purified human BACE1 ectodomain (human) (P56817 22-457): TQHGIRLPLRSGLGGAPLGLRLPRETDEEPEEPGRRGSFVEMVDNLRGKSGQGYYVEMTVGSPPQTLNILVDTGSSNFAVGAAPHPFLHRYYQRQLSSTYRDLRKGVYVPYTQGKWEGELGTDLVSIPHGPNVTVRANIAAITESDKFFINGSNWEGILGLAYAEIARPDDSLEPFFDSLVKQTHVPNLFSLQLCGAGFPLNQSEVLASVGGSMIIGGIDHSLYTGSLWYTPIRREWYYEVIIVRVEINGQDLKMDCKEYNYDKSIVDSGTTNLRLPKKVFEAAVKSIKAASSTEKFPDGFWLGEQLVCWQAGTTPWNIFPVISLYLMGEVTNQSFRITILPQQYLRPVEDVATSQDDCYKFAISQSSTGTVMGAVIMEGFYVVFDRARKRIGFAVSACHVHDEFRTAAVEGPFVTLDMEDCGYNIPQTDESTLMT
Chain of human BACE1 (amino acids 1–460) fused to the constant region of human IgG1 (hBACE1:Fc), wild type (human) (P56817 22-460): as the sequence (P56817 22-460) above

B1: VHH‐4A2 (VHH)
VHH: QVQLQESGGGLVQPGGSLRLSCAASGFTFETQYMTWVRQAPGKGPEYVSSINSGGTIKYYANSSVKGRFTISRDNAKNTLYLQMNNLRPEDTAIYYCQLGQWAGVGAASSRGQGTQVTVSS
B1 showed a Kd [1] of 21.2 nM, a koff [1] of 0.00841 s⁻¹ and a kon [1] of 397000 M⁻¹ s⁻¹. The EC50 of inhibition of hBACE1:Fc in the in vitro APP cleavage assay (MBP-C125sw substrate, cleavage product by ELISA) [2] was 789 nM, the Kd [3] was 48.2 nM and the koff [3] was 0.0231 s⁻¹. The kon [3] was 479000 M⁻¹ s⁻¹.

B2: VHH‐10C4 (VHH)
VHH: QVQLQESGGGSVQAGGFLRLSCAASGYTYSTCSMAWYRQAPGKERELVSSIRNDGSTAYADSVKGRFTISQDNAKNTVYLQMNSLKPEDTAMYYCNIRIGVGPGGTCSIYAPYWGEGTQVTVSS
For B2, the Kd [1] was 27.7 nM, the koff [1] was 0.0125 s⁻¹ and the kon [1] was 451000 M⁻¹ s⁻¹. It also gave an EC50 of inhibition of hBACE1:Fc in the in vitro APP cleavage assay (MBP-C125sw substrate, cleavage product by ELISA) [2] of 112 nM, a Kd [3] of 74.7 nM and a koff [3] of 0.00792 s⁻¹. The kon [3] was 106000 M⁻¹ s⁻¹.

B3: VHH‐B9 (VHH)
VHH: DVQLQESGGGSVQAGGSLRLSCAASEYTYGYCSMGWYRQAPGKERELVSTITSDGSTSYVDSVKGRFTISQDNAKNTVYLQMNSLKPEDTAKYYCYTKTCANKLGAKFISWGQGTQVTVSS
notes: Recombinant form used in SPR, BLI, dot blot (detected by anti-His) and the cleavage assays; source: E. coli WK6 (pHEN6), periplasmic extract, purified (Ni-NTA, Superdex-75); not shown: His6, C-terminal, kept
For B3, the Kd [1] was 1.9 nM, the koff [1] was 0.00013 s⁻¹ and the kon [1] was 662000 M⁻¹ s⁻¹. The Kd (biotinylated mouse BACE1 [4]) was 3.2 nM, the koff (biotinylated mouse BACE1 [4]) was 0.00072 s⁻¹ and the kon (biotinylated mouse BACE1 [4]) was 224000 M⁻¹ s⁻¹. For the same binder, the Kd (biotinylated human BACE1) was 2.9 nM, the koff (biotinylated human BACE1) was 0.000443 s⁻¹ and the kon (biotinylated human BACE1) was 153000 M⁻¹ s⁻¹. The Kd [3] was 3.7 nM, the koff [3] was 0.00098 s⁻¹ and the kon [3] was 267000 M⁻¹ s⁻¹. For the same binder, the binding result (mouse BACE2) was “no binding (tested: 100 nM)”, the “EC50 of lowering Aβ1-40 (ELISA of conditioned medium) in primary mouse neurons expressing human APP695, VHH-B9 from 10 µM to 0.7 nM” value (biotinylated mouse BACE1 [5]) was 85.4 nM and the “EC50 of inhibition of hBACE1:Fc in the in vitro APP cleavage assay (MBP-C125sw substrate, cleavage product by ELISA)” value [6] was 99.2 nM.
